{"source": "paper PMC5940772", "about": "(Nature Communications, 2018)", "binders": {"B1": {"name": "Human TRIM25 CC-PRYSPRY domain (residues 189-630) (domain or fragment)", "chain": "ASLSQASADLEATLRHKLTVMYSQINGASRALDDVRNRQQDVRMTANRKVEQLQQEYTEMKALLDASETTSTRKIKEEEKRVNSKFDTIYQILLKKKSEIQTLKEEIEQSLTKRDEFEFLEKASKLRGISTKPVYIPEVELNHKLIKGIHQSTIDLKNELKQCIGRLQEPTPSSGDPGEHDPASTHKSTRPVKKVSKEEKKSKKPPPVPALPSKLPTFGAPEQLVDLKQAGLEAAAKATSSHPNSTSLKAKVLETFLAKSRPELLEYYIKVILDYNTAHNKVALSECYTVASVAEMPQNYRPHPQRFTYCSQVLGLHCYKKGIHYWEVELQKNNFCGVGICYGSMNRQGPESRLGRNSASWCVEWFNTKISAWHNNVEKTLPSTKATRVGVLLNCDHGFVIFFAVADKVHLMYKFRVDFTEALYPAFWVFSAGATLSICSPK", "notes": "also called TRIM25 coiled-coil-PRY-SPRY"}, "B2": {"name": "NS1-ED (effector domain of NS1, 79-230) (domain or fragment)", "chain": "MTMASVPASRYLTDMTLEEMSRDWSMLIPKQKVAGPLCIRMDQAIMDKNIILKANFSVIFDRLETLILLRAFTEEGAIVGEISPLPSLPGHTAEDVKNAVGVLIGGLEWNDNTVRVSETLQRFAWRSSNENGRPPLTPKQKREMAGTIRSEV"}, "B3": {"name": "TRIM25-CC (coiled-coil domain of TRIM25, 189-379), tag removed (domain or fragment)", "chain": "ASLSQASADLEATLRHKLTVMYSQINGASRALDDVRNRQQDVRMTANRKVEQLQQEYTEMKALLDASETTSTRKIKEEEKRVNSKFDTIYQILLKKKSEIQTLKEEIEQSLTKRDEFEFLEKASKLRGISTKPVYIPEVELNHKLIKGIHQSTIDLKNELKQCIGRLQEPTPSSGDPGEHDPASTHKSTRP"}}, "key": {"SEC + SEC-MALS": {"molecular_target": "the molecule itself", "experiment": "SEC + SEC-MALS"}, "[1]": {"molecular_target": "His-tagged TRIM25-CC (coiled-coil domain of TRIM25, 189-379) (human, UniProt Q14258 189-379)", "experiment": "BLI; […] (~12 ug/ml); […]; 25 °C; 50 mM HEPES pH 7.5, 150 mM NaCl, 1 mM DTT, 0.005% Tween-20; […]", "conditions": "both partners purified"}, "crystal structure": {"molecular_target": "the molecule itself", "experiment": "crystal structure"}}}
{"binder": "B1", "values": [{"measurement": "stoichiometry N", "setting": "SEC + SEC-MALS", "value": 2}]}
{"binder": "B2", "values": [{"measurement": "Kd", "setting": "[1]", "value": 16.1, "unit": "µM"}]}
{"binder": "B3", "values": [{"measurement": "binding result", "setting": "crystal structure", "value": "binds"}]}
